According to IntAct's records for PubMed 16000308:

B1: Melanoma-associated antigen D1 (Homo sapiens), Q9Y5V3 (parent)
chain: MAQKMDCGAGLLGFQAEASVEDSALLMQTLMEAIQISEAPPTNQATAAASPQSSQPPTANEMADIQVSAAAARPKSAFKVQNATTKGPNGVYDFSQAHNAKDVPNTQPKAAFKSQNATPKGPNAAYDFSQAATTGELAANKSEMAFKAQNATTKVGPNATYNFSQSLNANDLANSRPKTPFKAWNDTTKAPTADTQTQNVNQAKMATSQADIETDPGISEPDGATAQTSADGSQAQNLESRTIIRGKRTRKINNLNVEENSSGDQRRAPLAAGTWRSAPVPVTTQNPPGAPPNVLWQTPLAWQNPSGWQNQTARQTPPARQSPPARQTPPAWQNPVAWQNPVIWPNPVIWQNPVIWPNPIVWPGPVVWPNPLAWQNPPGWQTPPGWQTPPGWQGPPDWQGPPDWPLPPDWPLPPDWPLPTDWPLPPDWIPADWPIPPDWQNLRPSPNLRPSPNSRASQNPGAAQPRDVALLQERANKLVKYLMLKDYTKVPIKRSEMLRDIIREYTDVYPEIIERACFVLEKKFGIQLKEIDKEEHLYILISTPESLAGILGTTKDTPKLGLLLVILGVIFMNGNRASEAVLWEALRKMGLRPGVRHPLLGDLRKLLTYEFVKQKYLDYRRVPNSNPPEYEFLWGLRSYHETSKMKVLRFIAEVQKRDPRDWTAQFMEAADEALDALDAAAAEAEARAEARTRMGIGDEAVSGPWSWDDIEFELLTWDEEGDFGDPWSRIPFTFWARYHQNARSRFPQTFAGPIIGPGGTASANFAANFGAIGFFWVE
partner: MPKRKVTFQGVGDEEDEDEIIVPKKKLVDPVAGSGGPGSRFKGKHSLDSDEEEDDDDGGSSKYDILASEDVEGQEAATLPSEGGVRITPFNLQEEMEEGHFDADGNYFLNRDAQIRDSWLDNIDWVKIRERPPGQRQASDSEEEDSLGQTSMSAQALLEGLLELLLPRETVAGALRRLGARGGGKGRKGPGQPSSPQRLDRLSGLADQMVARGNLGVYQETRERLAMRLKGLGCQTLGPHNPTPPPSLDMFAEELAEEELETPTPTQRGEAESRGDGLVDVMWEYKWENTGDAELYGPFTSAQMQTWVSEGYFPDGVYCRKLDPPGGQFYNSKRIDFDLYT

Variants of: B1
Settings: with cd2b2_human CD2BP2, O95400

Effect of a mutation on the interaction: each site, then its substitutions
P384: W disrupting interaction strength, Y disrupting interaction strength
G385: A disrupting interaction strength, C disrupting interaction strength, D disrupting interaction strength, E disrupting interaction strength, F disrupting interaction strength, H disrupting interaction strength, I disrupting interaction strength, K disrupting interaction strength, L disrupting interaction strength, M disrupting interaction strength, N disrupting interaction strength, P decreasing interaction strength, Q disrupting interaction strength, R decreasing interaction strength, S disrupting interaction strength, T disrupting interaction strength, W disrupting interaction strength, Y disrupting interaction strength
W386: A disrupting interaction strength, C disrupting interaction strength, D disrupting interaction strength, E disrupting interaction strength, G disrupting interaction strength, H disrupting interaction strength, I decreasing interaction strength, K decreasing interaction strength, M decreasing interaction strength, N disrupting interaction strength, P decreasing interaction strength, S decreasing interaction strength, T disrupting interaction strength, V disrupting interaction strength
Q387: A decreasing interaction strength, C disrupting interaction strength, D disrupting interaction strength, E disrupting interaction strength, W disrupting interaction strength, Y disrupting interaction strength
T388: C decreasing interaction strength, D decreasing interaction strength, E decreasing interaction strength
